Results from patent publication US20230407373A1 (priority 2020, published 2023).
Where two headings read alike, the source gives them in different places.

Key:
[1] = test system: HCoV-OC43 gRNA and sgRNA; type: binding; conditions: for target (unweighted spectral count, OC43 Probe II capture): tested against no-probe control, FDR<10%; for target (unweighted spectral count, OC43 Probe II) / background (unweighted spectral count, no-probe control): type n_48_v, 48 hpi; for target (unweighted spectral count, OC43 Probe II): OC43 Probe II capture on infected cells; for background (unweighted spectral count, no-probe control): no-probe control on infected cells; for target (spectral count) / background (spectral count): type s_36_m, Probe II; for target (spectral count): HCoV-OC43-infected HCT-8 cells; for background (spectral count): uninfected-probe control
[2] = test system: gRNA of HCoV-OC43; type: binding; conditions: type n_48_v: 48 hours post-infection; for target (spectral count, OC43 Probe I RNP capture): infected cells, unweighted spectral count; for background (spectral count, no-probe control): no-probe control on infected cells

Row | Molecule | target (unweighted spectral count, OC43 Probe II capture) ([1]; 36 hpi, type n_36_v) | target (unweighted spectral count, OC43 Probe II) [1] | background (unweighted spectral count, no-probe control) [1] | target (spectral count) ([1]; 36 hpi) | background (spectral count) ([1]; 36 hpi) | target (spectral count, OC43 Probe I RNP capture) [2] | background (spectral count, no-probe control) [2] | target (unweighted spectral count, OC43 Probe II capture) ([1]; 24 hpi, type n_24_v)
1 | LARP7: host protein, UniProt Q4G0J3 (protein, UniProt Q4G0J3 1-582, looked up) La-related protein 7: METESGNQEKVMEEESTEKKKEVEKKKRSRVKQVLADIAKQVDFWFGDANLHKDRFLREQIEKSRDGYVDISLLVSFNKMKKLTTDGKLIARALRSSAVVELDLEGTRIRRKKPLGERPKDEDERTVYVELLPKNVNHSWIERVFGKCGNVVYISIPHYKSTGDPKGFAFVEFETKEQAAKAIEFLNNPPEEAPRKPGIFPKTVKNKPIPALRVVEEKKKKKKKKGRMKKEDNIQAKEENMDTSNTSISKMKRSRPTSEGSDIESTEPQKQCSKKKKKRDRVEASSLPEVRTGKRKRSSSEDAESLAPRSKVKKIIQKDIIKEASEASKENRDIEISTEEEKDTGDLKDSSLLKTKRKHKKKHKERHKMGEEVIPLRVLSKSEWMDLKKEYLALQKASMASLKKTISQIKSESEMETDSGVPQNTGMKNEKTANREECRTQEKVNATGPQFVSGVIVKIISTEPLPGRKQVRDTLAAISEVLYVDLLEGDTECHARFKTPEDAQAVINAYTEINKKHCWKLEILSGDHEQRYWQKILVDRQAKLNQPREKKRGTEKLITKAEKIRLAKTQQASKHIRFSEYD | 7 | 9 | 1 | 7 | 1 | 6 | 1 | 
2 | ESRP2 (protein, UniProt Q9H6T0 1-727, looked up) Epithelial splicing …: MTPPPPPPPPPGPDPAADPAADPCPWPGSLVVLFGATAGALGRDLGSDETDLILLVWQVVEPRSRQVGTLHKSLVRAEAAALSTQCREASGLSADSLARAEPLDKVLQQFSQLVNGDVALLGGGPYMLCTDGQQLLRQVLHPEASRKNLVLPDMFFSFYDLRREFHMQHPSTCPARDLTVATMAQGLGLETDATEDDFGVWEVKTMVAVILHLLKEPSSQLFSKPEVIKQKYETGPCSDSTVPCPYSSKADVVDSETVVRARGLPWQSSDQDVARFFKGLNVARGGVALCLNAQGRRNGEALIRFVDSEQRDLALQRHKHHMGVRYIEVYKATGEEFVKIAGGTSLEVARFLSREDQVILRLRGLPFSAGPTDVLGFLGPECPVTGGTEGLLFVRHPDGRPTGDAFALFACEELAQAALRRHKGMLGKRYIELFRSTAAEVQQVLNRYASGPLLPTLTAPLLPIPFPLAPGTGRDCVRLRGLPYTATIEDILSFLGEAAADIRPHGVHMVLNQQGRPSGDAFIQMTSAERALAAAQRCHKKVMKERYVEVVPCSTEEMSRVLMGGTLGRSGMSPPPCKLPCLSPPTYTTFQATPTLIPTETAALYPSSALLPAARVPAAPTPVAYYPGPATQLYLNYTAYYPSPPVSPTTVGYLTTPTAALASAPTSVLSQSGALVRMQGVPYTAGMKDLLSVFQAYQLPADDYTSLMPVGDPPRTVLQAPKEWVCL | 6 | 8 | 1 |  |  | 6 | 1 | 5
3 | ZNF326: host protein, UniProt Q5BKZ1 (protein, UniProt Q5BKZ1 1-582, looked up) DBIRD complex subunit ZNF326: MDFEDDYTHSACRNTYQGFNGMDRDYGPGSYGGMDRDYGHGSYGGQRSMDSYLNQSYGMDNHSGGGGGSRFGPYESYDSRSSLGGRDLYRSGYGFNEPEQSRFGGSYGGRFESSYRNSLDSFGGRNQGGSSWEAPYSRSKLRPGFMEDRGRENYSSYSSFSSPHMKPAPVGSRGRGTPAYPESTFGSRNYDAFGGPSTGRGRGRGHMGDFGSIHRPGIVVDYQNKSTNVTVAAARGIKRKMMQPFNKPSGTFIKKPKLAKPMEKISLSKSPTKTDPKNEEEEKRRIEARREKQRRRREKNSEKYGDGYRMAFTCSFCKFRTFEEKDIELHLESSSHQETLDHIQKQTKFDKVVMEFLHECMVNKFKKTSIRKQQTNNQTEVVKIIEKDVMEGVTVDDHMMKVETVHCSACSVYIPALHSSVQQHLKSPDHIKGKQAYKEQIKRESVLTATSILNNPIVKARYERFVKGENPFEIQDHSQDQQIEGDEEDEEKIDEPIEEEEDEDEEEEAEEVGEVEEVEEVEEVREGGIEGEGNIQGVGEGGEVGVVGEVEGVGEVEEVEELEEETAKEEPADFPVEQPEEN | 7 | 8 | 2 | 7 | 1 | 10 | 2 | 4
4 | DKC1 (protein, UniProt O60832 2-514, looked up) H/ACA ribonucleoprotein …: ADAEVIILPKKHKKKKERKSLPEEDVAEIQHAEEFLIKPESKVAKLDTSQWPLLLKNFDKLNVRTTHYTPLACGSNPLKREIGDYIRTGFINLDKPSNPSSHEVVAWIRRILRVEKTGHSGTLDPKVTGCLIVCIERATRLVKSQQSAGKEYVGIVRLHNAIEGGTQLSRALETLTGALFQRPPLIAAVKRQLRVRTIYESKMIEYDPERRLGIFWVSCEAGTYIRTLCVHLGLLLGVGGQMQELRRVRSGVMSEKDHMVTMHDVLDAQWLYDNHKDESYLRRVVYPLEKLLTSHKRLVMKDSAVNAICYGAKIMLPGVLRYEDGIEVNQEIVVITTKGEAICMAIALMTTAVISTCDHGIVAKIKRVIMERDTYPRKWGLGPKASQKKLMIKQGLLDKHGKPTDSTPATWKQEYVDYSESAKKEVVAEVVKAPQVVAEAAKTAKRKRESESESDETPPAAPQLIKKEKKKSKKDKKAKAGLESGAEPGDGDSDTTKKKKKKKKAKEVELVSE |  | 9 | 1 |  |  | 6 | 1 | 
5 | RBM4 (protein, UniProt Q9BWF3 1-364, looked up) RNA-binding protein 4: MVKLFIGNLPREATEQEIRSLFEQYGKVLECDIIKNYGFVHIEDKTAAEDAIRNLHHYKLHGVNINVEASKNKSKTSTKLHVGNISPTCTNKELRAKFEEYGPVIECDIVKDYAFVHMERAEDAVEAIRGLDNTEFQGKRMHVQLSTSRLRTAPGMGDQSGCYRCGKEGHWSKECPIDRSGRVADLTEQYNEQYGAVRTPYTMSYGDSLYYNNAYGALDAYYKRCRAARSYEAVAAAAASVYNYAEQTLSQLPQVQNTAMASHLTSTSLDPYDRHLLPTSGAAATAAAAAAAAAAVTAASTSYYGRDRSPLRRATAPVPTVGEGYGYGHESELSQASAAARNSLYDMARYEREQYADRARYSAF | 4 |  |  |  |  | 6 | 1 | 4
6 | APOBEC3F (protein, UniProt Q8IUX4 1-373, looked up) DNA dC->dU-editing enzyme …: MKPHFRNTVERMYRDTFSYNFYNRPILSRRNTVWLCYEVKTKGPSRPRLDAKIFRGQVYSQPEHHAEMCFLSWFCGNQLPAYKCFQITWFVSWTPCPDCVAKLAEFLAEHPNVTLTISAARLYYYWERDYRRALCRLSQAGARVKIMDDEEFAYCWENFVYSEGQPFMPWYKFDDNYAFLHRTLKEILRNPMEAMYPHIFYFHFKNLRKAYGRNESWLCFTMEVVKHHSPVSWKRGVFRNQVDPETHCHAERCFLSWFCDDILSPNTNYEVTWYTSWSPCPECAGEVAEFLARHSNVNLTIFTARLYYFWDTDYQEGLRSLSQEGASVEIMGYKDFKYCWENFVYNDDEPFKPWKGLKYNFLFLDSKLQEILE | 4 | 6 | 1 |  |  | 6 | 1 | 
7 | POP1: host protein, UniProt Q99575 (protein, UniProt Q99575 1-1024, looked up) Ribonucleases P/MRP protein …: MSNAKERKHAKKMRNQPTNVTLSSGFVADRGVKHHSGGEKPFQAQKQEPHPGTSRQRQTRVNPHSLPDPEVNEQSSSKGMFRKKGGWKAGPEGTSQEIPKYITASTFAQARAAEISAMLKAVTQKSSNSLVFQTLPRHMRRRAMSHNVKRLPRRLQEIAQKEAEKAVHQKKEHSKNKCHKARRCHMNRTLEFNRRQKKNIWLETHIWHAKRFHMVKKWGYCLGERPTVKSHRACYRAMTNRCLLQDLSYYCCLELKGKEEEILKALSGMCNIDTGLTFAAVHCLSGKRQGSLVLYRVNKYPREMLGPVTFIWKSQRTPGDPSESRQLWIWLHPTLKQDILEEIKAACQCVEPIKSAVCIADPLPTPSQEKSQTELPDEKIGKKRKRKDDGENAKPIKKIIGDGTRDPCLPYSWISPTTGIIISDLTMEMNRFRLIGPLSHSILTEAIKAASVHTVGEDTEETPHRWWIETCKKPDSVSLHCRQEAIFELLGGITSPAEIPAGTILGLTVGDPRINLPQKKSKALPNPEKCQDNEKVRQLLLEGVPVECTHSFIWNQDICKSVTENKISDQDLNRMRSELLVPGSQLILGPHESKIPILLIQQPGKVTGEDRLGWGSGWDVLLPKGWGMAFWIPFIYRGVRVGGLKESAVHSQYKRSPNVPGDFPDCPAGMLFAEEQAKNLLEKYKRRPPAKRPNYVKLGTLAPFCCPWEQLTQDWESRVQAYEEPSVASSPNGKESDLRRSEVPCAPMPKKTHQPSDEVGTSIEHPREAEEVMDAGCQESAGPERITDQEASENHVAATGSHLCVLRSRKLLKQLSAWCGPSSEDSRGGRRAPGRGQQGLTREACLSILGHFPRALVWVSLSLLSKGSPEPHTMICVPAKEDFLQLHEDWHYCGPQESKHSDPFRSKILKQKEKKKREKRQKPGRASSDGPAGEEPVAGQEALTLGLWSGPLPRVTLHCSRTLLGFVTQGDFSMAVGCGEALGFVSLTGLLDMLSSQPAAQRGLVLLRPPASLQYRFARIAIEV | 8 | 7 | 1 | 8 | 1 | 6 | 1 | 
